We go through one molecule from patent US20200317756A1 (CERTEST BIOTEC S L, published 2020).

Assay [1] deals with T1, DNA-Binding Protein from Starved Cells (Dps) of Campylobacter jejuni (Campylobacter jejuni, UniProt Q0P891 1-149).
T1 construct: also called Dps of C. jejuni
The experiment in a line: sandwich immunochromatographic strip, immobilized CL30Camp and labeled CL30Camp, Dps at 1.85 ng/mL, read by eye after 10 min.

Assay [2] has as its target T2, DNA-Binding Protein from Starved Cells (Dps) of Campylobacter coli (Campylobacter coli).
T2 construct: also called Dps of C. coli
The experiment in a line: sandwich immunochromatographic strip, immobilized CL30Camp and labeled CL30Camp, Dps at 0.75 ng/mL, read by eye after 10 min (+/- = weak positive response).

B1: CL30Camp monoclonal antibody (antibody, V domains shown)
VH: QVQLKQSGPGLVQPSQSLSITCTVSGFSLTSSGVHWVRQSPGKGLEWLGVIWRGGSTDYNAAFMSRLSITKDNSKSQVFFKMNSLQPDDTAIYYCAKNYYYGTSPDYFDYWGQGTTLTVSS
VL: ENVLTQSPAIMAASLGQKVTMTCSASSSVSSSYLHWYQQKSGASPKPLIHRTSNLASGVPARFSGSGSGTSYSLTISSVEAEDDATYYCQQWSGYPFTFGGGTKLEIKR
notes: also called CL30Camp/CL30Camp (immobilized/labeled pair in the test device)
As for B1, the binding result in assay [1] and in assay [2] was “binds” each time.
